From the nanobody polyreactivity screen of Harvey et al. (2022)

Test: yeast display, Sf9 membrane polyspecificity reagent, FACS + sequencing; frameworks hold sequencing errors
In short: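 Nanobodies from a synthetic yeast display library (Saccharomyces cerevisiae BJ5465), induced 36–48 hours with galactose, were stained 1 hour at 4 °C with 10% biotinylated, detergent-solubilized Sf9 membrane reagent, enriched on streptavidin microbeads, then FACS-sorted. Anti-HA (expression) and streptavidin (reagent binding) fluorescence set low and high (top ~1%) gates. Polyreactivity labels come from the gate of origin. Genes were colony-PCR amplified, MiSeq 2 × 250 sequenced and filtered by CDR length.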

Row | Sequence | polyreactivity (PSR sort gate)
1 | QVQLVESGGGLVQAGGSLRLSCAASGRILYQYAMAWYRQAPGKERELVASISGRSGRTRYADSVKGRFTISRDNAKNTVYLQMNSLKPEDTAVYYCNAGSSVLKYDYWGQGTQVTVSS | low polyreactivity
2 | QVQLVESGGGLVQAGGSLRLSCAASGRTIWRYGMGWYRQAPGKERELVAAITDSGDSTYYADSVKGRFTISRDNAKNTVYLQMNSLKPEDTAVYYCAASDVVFALNGYYPGEDDYWGQGTQVTVSS | low polyreactivity
3 | QVQLVESGGGLVQAGGSLRLSCAASGSTFDVYAMGWYRQAPGKERELVATISTSGGDTYYADSVKGRFTISRDNAKNTVYLQMNSLNPEDTAVYYCNVSASYYSPDPKVLVRYDYWGQGTQVTVSS | low polyreactivity
4 | QVQLVESGGGLVQAGGSLRLSCAASGSTFYSNAMGWYRQAPGKERELVASISWSSGSTYYADSVKGRFTISRDNAKNTVYLQMNSLKPEDTAVYYCATDAGGPYRFGYWGQGTQVTVSS | low polyreactivity
5 | QVQLVESGGGLVQAGGSLRLSCAASGSTFAINAMGWYRQAPGKERELVAAITYSGGGTYYADSVKGRFTISRENAKNTVYLQMNSLKPEDTAVYYCYAYGRSWVFNYIGVFLYDYWGQGTQVTVSS | low polyreactivity
6 | QVQLVESGGGLVQAGGSLRLSCAASGRIFAGYAMGWYRQAPGKERELVAAISSGGGSTYYADSVKGRFTISRDNAKNTVYLQMNSLKPEDTAVYYCARDSYPHGRARFDYWGQGTQVTVSS | high polyreactivity
7 | QGQLVESGGGIVQAGVSLRLSCAASGSIFTANAMGWYRQAPGKVRELVAAISRSGGRTYYADSVKGRFTISRDNAKNTVYLQMNSLNPEDTAVYYCNVGSFNTSGYDYWGQGTQVTVSS | high polyreactivity
8 | QVQLVESGGCLVQAGGSLRLSCPASGSNFPDNAMGRYRPAPGKERELVAAISLSGGRTYYADSVKGRFTISRDNAKNTVYLQMNSLKPDDTAVYYCNKLTRFVKYDYWGQGTQVTVSS | high polyreactivity
9 | QVQLVESGGGLVQAGGSLRLSCAASGSTLSFNAMGWYRQAPGKERELVAGITYSGGSTYYADSVKGRFTISRDNAKNTVYLQMNSLKPEDTAVYYCNKSSGVYYGHLDYWGQGTQVTVSS | low polyreactivity
10 | QVQLVESGGGLVQAGGSLRLSCAASGRTLERYSMGWYRQAPGKEREFVAAIRWSGGSTYYADSVKGRFTISRDNAKNTVYLQMNSLKPEDTAVYYCNADWQSYYWAGDGYDYWGQGTQVTVSS | low polyreactivity
11 | QVQLVESGGGLVQAGGSLRLSCAASGIIFAYYAMGWYRQAPGKERELVGTNYADSVKGRFTISRDNAKNTVFLQMNSLKPEDTAVYYCAVQGYGEYDYWGQGTQVTVSS | low polyreactivity
12 | QVQLLESGGGIVKAGGFLRLSCAASGSTFRRYAMGRYREAPGIERELVAAITGRGGSTSYADSVKGRFTISRDNAMNTVYLQMNSLKPEDTSVYYCAADDKYFYPGNGYWGQGTQVTVSS | high polyreactivity
13 | QVQLVESGGGLVQAGGSLRLSCAASGITFIYYAMGWYRQAPGKERELVAAISKSGGRTYYADSVKGRFTISRDNAKNTVYLQMNSLKPEDTAVYYCNKLVGDDTALYDYWGQGTQVTVSS | high polyreactivity
14 | QVQRVESGGGLVQAGGSLRLTCAASGSIFRSYAMGWYRQAPGKERELVAAISSSSGSTYYADSVKGRFTISRDKAKYTVYLQMNSLKPEDTAVYYCAARYRIGNNGYEYWGQGTQVTVSS | low polyreactivity
15 | QVQLVESGGGLVQAGGSLRLSCSASGFIFRRYAMGWYRQAPGKEREFVAAITSSGTSTYYADSVKGRFTISRDNAKNTVYLQMNSLKPEDTAVYYCADVYQYTHYYSNYGYWGEGTQVTVSS | high polyreactivity
16 | QVQLVESGGGLVQAGGSLRLSCAASGRIFSFYTMGWYRQAPGKERELVAAISSGGRTYYADSVKGRFTISRDNEKNTVYLQMNSLKPEDTAVYYCAAGSHYAFYYWGQGTQVTVSS | high polyreactivity
17 | QVQLVESGGGLVQAGGSLRLSCAASGSISKGYAMGWYRQAPGKERELVARISGDGGSTYYADSVKGRFTISRDNAKNTVYLQMNSLKPEDTAVYYCNARAYYGIRYYSWGQGTQVTVSS | high polyreactivity
18 | QDQLVESGGGLVQAGGSLRLSCAASGRTFAYNAMVWYRQAPGKERELVADITSGGSTYYADSVKGRFTISRDNPKNTVNLQMNSLKPEDTAVYDCADVRQGSFTTMDYWGQGTQVTVSS | high polyreactivity
19 | QVQLVESGGGLVQAGGSLRLSCAASGSIFYPYAMGWYRQAPGKERELVATISWSGSSTYYADSVKGRVTISRDNAKNTVYSQMNSLKPEDTAVYYCAVRYSVLSNYRYYYWGQGTQVTVSS | low polyreactivity
20 | QVQLVESGGGLVQAGGSLRLCCAASGFICGKYALGWYRQAAGNEWVLVAAITSDGRTYYADSVKGRFTISRDNPKNTVYVQMNSLKPEDTAVYYCAVDYYWYSYSGYDDYWGQGTQVTVSS | high polyreactivity
21 | QVQLVESGGGLVQAGGSLRLTCAASGITFTSYVMGWYRQAPGKERELVAAIRWSGGRTYYADSVKGRFTISRDNAKNSVYLQMNSLKPEDTAVYYCNRVTRSHVDYWGQGTQVTVSS | high polyreactivity
